Experimental data as given in patent publication WO2014161570A1.
Where two headings read alike, the source gives them in different places.

T1: Human IL-17A (human) (UniProt Q16552)
T1 sequence: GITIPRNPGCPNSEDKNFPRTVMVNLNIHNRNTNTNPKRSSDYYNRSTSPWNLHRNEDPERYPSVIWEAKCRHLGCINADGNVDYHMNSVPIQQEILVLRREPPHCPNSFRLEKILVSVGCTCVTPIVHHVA


Tests used:
Experiment in all cases: ELISA, IL-17A coated on plate, relative binding (Table 6a)
Human IL-17A (human) [1] = target: T1, Human IL-17A (human)
[2] = target: Cynomolgous IL-17A (cynomolgous)
Human IL-17A (human) [3] = target: T1, Human IL-17A (human); remark: listed apart in the source

Molecule | Relative binding to human IL-17A in % (Human IL-17A (human) [1]) [%] | Relative binding to cynomolgous IL-17A in % [2] [%] | Relative binding to human IL-17A in % (Human IL-17A (human) [3]) [%]
eBio64CAP17 (antibody) | 122 | 124 | 
<IL17> 9C6-2B6 (mouse clone) (antibody, V domains shown) VH: QVQLKESGPGLVAPSQSLSITCTVSGFSLDSYGVHWVRQPPGKGLEWLVVIWSDGTTTYNSALKSRLSITKDNSKSQVFLKMNSLQTDDTAIYYCARDTHYRLYYYAMDYWGQGTSVTVSS VL: DVVMTQTPLSLPVSLGDQASISCRSSQSLVHSNGDTYFHWYLQKPGQSPKLLIYKVSNRFSGVPDRFSGSGSGTDFTLKINRVEAEDLGVYFCSQTTHAPFTFGSGTKLEIK |  |  | 127
